In PMC6755812:

How the values were obtained:
[1] = target: Escherichia coli peptide methionine sulfoxide reductase A (E. coli) (UniProt P0A744)
[2] = target: Escherichia coli thioredoxin reductase (E. coli) (UniProt P0A9P4)
[3] = target: bovine pancreas insulin (bovine)
Chain of bovine pancreas insulin (bovine) (P01317 25-54, chain 1 of 2): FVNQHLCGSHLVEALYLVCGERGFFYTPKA
Chain of bovine pancreas insulin (bovine) (P01317 85-105, chain 2 of 2): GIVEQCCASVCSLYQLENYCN

Chain of Escherichia coli peptide methionine sulfoxide reductase A (E. coli) (P0A744 2-212): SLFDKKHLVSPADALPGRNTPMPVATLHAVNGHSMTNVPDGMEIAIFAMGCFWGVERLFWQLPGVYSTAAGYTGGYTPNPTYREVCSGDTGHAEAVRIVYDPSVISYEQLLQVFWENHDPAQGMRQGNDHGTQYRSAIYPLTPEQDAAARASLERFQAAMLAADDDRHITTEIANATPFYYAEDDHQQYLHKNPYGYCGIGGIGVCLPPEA
Chain of Escherichia coli thioredoxin reductase (E. coli) (P0A9P4 2-321): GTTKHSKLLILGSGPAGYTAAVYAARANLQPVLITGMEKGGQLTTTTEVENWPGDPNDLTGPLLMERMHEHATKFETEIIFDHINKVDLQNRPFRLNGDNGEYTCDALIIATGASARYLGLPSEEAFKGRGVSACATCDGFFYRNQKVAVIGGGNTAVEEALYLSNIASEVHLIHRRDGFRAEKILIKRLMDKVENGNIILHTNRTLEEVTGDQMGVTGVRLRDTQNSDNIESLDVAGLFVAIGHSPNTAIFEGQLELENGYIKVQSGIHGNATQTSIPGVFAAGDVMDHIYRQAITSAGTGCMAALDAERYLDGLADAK

B1: human thioredoxin (enzyme)
chain: MVKQIESKTAFQEALDAAGDKLVVVDFSATWCGPCKMIKPFFHSLSEKYSNVIFLEVDVDDCQDVASECEVKCMPTFQFFKKGQKVGEFSGANKEKLEATINELV
[1]
  k1: rate constant of Trx–MsrA mixed disulfide formation (stopped-flow fluorescence, 1 μM oxidized MsrA, 5-100 μM reduced Trx, pH 7.0, 25 °C): 221000 M^−1 s^−1
  k2: rate constant of mixed disulfide dissociation to reduced MsrA and oxidized Trx (stopped-flow fluorescence, pH 7.0, 25 °C): 3.63 s^−1
[2]
  Catalytic activity of S-MetO reduction by NADPH (Vi/[Trx]) in the reconstituted NADPH/TrxR/Trx/MsrA chain (4.5 μM TrxR, 4.5 μM MsrA, 0.1-1.0 μM Trx, pH 7.0, 25 °C): 0.22 min^−1
[3]
  Specific insulin reductase activity (0.13 mM insulin, 1 mM DTT, 0.5-2.0 μM Trx, onset of aggregation at OD650, pH 7.0, 25 °C): 0.155 min^−1 μM^−1
